According to article PMC5684335, “ER-associated degradation regulates Alzheimer’s amyloid pathology and memory function by modulating γ-secretase activity” (Nature Communications, 2017):

What follows are molecules tested against T1, membralin-mCherry (mouse, UniProt Q8CIV2 1-574) (assay: FRET or BRET; acceptor photobleaching in HEK293T co-transfected 24 h with target-EGFP (donor) and membralin-mCherry (acceptor); 10 cells, three independent experiments). Settings: not given.
T1 construct: membralin (TMEM259), mouse cDNA from the IMAGE consortium, subcloned into pmCherry-N1; FRET acceptor; also called mCherry-tagged membralin; source: HEK293T, transfected, in living cells
T1 sequence (Q8CIV2 whole entry): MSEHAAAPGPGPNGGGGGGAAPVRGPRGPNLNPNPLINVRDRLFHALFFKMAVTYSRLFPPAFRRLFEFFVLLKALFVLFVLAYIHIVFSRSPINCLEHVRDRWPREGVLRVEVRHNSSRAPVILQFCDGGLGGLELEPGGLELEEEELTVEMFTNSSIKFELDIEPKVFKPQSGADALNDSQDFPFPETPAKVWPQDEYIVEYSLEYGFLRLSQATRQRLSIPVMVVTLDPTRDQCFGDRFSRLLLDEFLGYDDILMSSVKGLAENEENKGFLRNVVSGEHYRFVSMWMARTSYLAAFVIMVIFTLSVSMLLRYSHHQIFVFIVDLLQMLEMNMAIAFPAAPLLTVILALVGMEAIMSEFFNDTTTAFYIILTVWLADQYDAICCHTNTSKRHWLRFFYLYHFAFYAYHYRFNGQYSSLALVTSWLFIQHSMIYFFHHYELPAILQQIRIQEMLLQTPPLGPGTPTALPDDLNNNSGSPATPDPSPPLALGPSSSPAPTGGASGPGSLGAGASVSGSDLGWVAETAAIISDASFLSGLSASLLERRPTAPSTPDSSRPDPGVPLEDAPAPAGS

Row | FRET efficiency [%] | Molecule
1 | 33.9 | FAM8A1-EGFP (from UniProt Q9UBU6 1-413) (natural protein)

Same assay, conditions: partners not purified

Row | FRET efficiency [%] | Molecule
2 | 21.8 | SYVN1-EGFP (natural protein, mouse, UniProt Q9DBY1 1-612, looked up, SYVN1 (Hrd1), mouse cDNA from the IMAGE consortium, subcloned into pEGFP-N1; FRET donor; vector pEGFP-N1; also called SYVN1-GFP; source: HEK293T, transfected, in living cells) MFRTAVMMAASLALTGAVVAHAYYLKHQFYPTVVYLTKSSPSMAVLYIQAFVLVFLLGKVMGKVFFGQLRAAEMEHLLERSWYAVTETCLAFTVFRDDFSPRFVALFTLLLFLKCFHWLAEDRVDFMERSPNISWLFHCRIVSLMFLLGILDFLFVSHAYHSILTRGASVQLVFGFEYAILMTMVLTIFIKYVLHSVDLQSENPWDNKAVYMLYTELFTGFIKVLLYMAFMTIMIKVHTFPLFAIRPMYLAMRQFKKAVTDAIMSRRAIRNMNTLYPDATPEELQAVDNVCIICREEMVTGAKRLPCNHIFHTSCLRSWFQRQQTCPTCRMDVLRASLPAQSPPPPEPADQGPPPAPHPQPLLPQPPNFPQGLLPPFPPGMFPLWPPMGPFPPVPPPPSSGEAAAPPPTSTAVSRPSGAATTTAAGTSTSAPAPGSVPGPEAGPAPGFPFPPPWMGMPLPPPFAFPPMPVPPAGFAGLTPEELRALEGHERQHLEARLQSLRNIHTLLDAAMLQINQYLTVLASLGPPRPATSVNPTEETASTVVSAAPSTSAPSSEAPTPSPGASPPIPEAEKPPAPESVGIVEELPEDGEPDAAELRRRRLQKLESPVAH
3 | 33.1 | Ubac2-EGFP (natural protein, mouse, UniProt Q8R1K1 40-345, looked up, Ubac2, mouse cDNA from the IMAGE consortium, subcloned into pEGFP-N1; FRET donor; vector pEGFP-N1; source: HEK293T, transfected, in living cells) FFVYDLHAVKHDLQIWRLICGRIICLDLKDAFCSGLLIYNFRIFERRYGSRKFASFLLGSWVLSALFDFILVEAVQYSLGVTVASNLPSGFLAPVFALFVPFHCSIPRVQVAQILGPLSITNKTLIYILGLQLFTSGSYIWIVAMSGLISGMCYDRKVLQVHQVLRIPGRMAEFFSWALEPIFSSSEPTSEARVGMGATVDIQRQQRMEQLDRQLMLSQFAQVRRQRQQQGGMINWNRLFPPLRQRRNINYQDGPRSEQRASPPLEVSEEQVARLMEMGFSRGDALEALRASNNDLNVATNFLLQH

The remaining lines, values behind:

Row | Molecule | FRET efficiency [%]
4 | EMC1-EGFP (natural protein, mouse, UniProt Q8C7X2 24-997, looked up, EMC1, mouse cDNA from the IMAGE consortium, subcloned into pEGFP-N1; FRET donor; vector pEGFP-N1; source: HEK293T, transfected, in living cells) YEDQVGKFDWRQQYVGKIKFASLEFSPGSKKLVVATEKNVIAALNSRTGEILWRHVDKGTAEGAVDAMLVHGQDAITVSNGGRLMRSWETNIGGLNWEITLDTGSFQALGLVGLQESVRYIAVLKKTTLTLHHLSSGHLKWVEHLPESDSILYQMVYSYGSGVVWALGIVPFSHVNIVKFNVEDGEIVQQVRVWTPWLQHLTGACGVVDEAVLVCPDPSSHSLHTLALETEWELRQIPLQSPDLEFGSGFQPQVLPTQPSPVAPSRAQFFLQLSPSHYALLHYHHGAVTLLKNFPQATLVSFATTGEKTVAAVMTCRTEVQKPVSAGDGSVASFPETSGAQDSLACFNQTYTINLYLVETGRRLLDTSISFSLEQKGTRPEQLYIQVFLKKDDSVGYRALVQTQDHLQLFLQQLAGKVVLWSREESLAEVVCLEMVDLPLTGAQAELEGEFGKKAAIQDGLLGMFLKRLSSQLILLQAWTSHLWKMFYDARKPRSQIKNEINIDTLARDEFNLQKMMVTVTASGKLFGIESSSGTILWKQYLPNVKPDSSFKLMVQRTTAHFPHPPQCTLLVKDKETGMSSLFVFNPIFGKWSQVAPPVLKRPILQSLLLPVMDQDYAKVLLLVDDEYKVTAFPATRNVLRQLHELAPSIFFYLVDAEQGRLSGYQLRKDLTTELSWELTIPPEVQRVVKVKGKRSSEHVHSQGRVMGDRSVLYKSLNPNLLAVVTESTDVHHERTFIGIFLIDGVTGRIIHSSVQKKARGPVHLVHSENWVVYQYWNSKARRNELTALELYEGTEQYNATAFSSLDRPQLPQVLQQSYIFPSSISAMEATITERGITSRHLLIGLPSGAILSLPKALLDPRRPEIPTEQSREENLIPYSPDVQVHAERFINYNQTVSRMRGIYTAPSGLESTCLVVAYGLDIYQTRVYPSKQFDVLKDDYDYVLISSVLFGLVFATMITKRLAQVKLLNRAWR | 22.4
5 | Derlin1-EGFP (natural protein, mouse, UniProt Q99J56 1-251, looked up, Derlin1, mouse cDNA from the IMAGE consortium, subcloned into pEGFP-N1; FRET donor; vector pEGFP-N1; source: HEK293T, transfected, in living cells) MSDIGDWFRSIPAITRYWFAATVAVPLIGKLGIISPAYFFLWPEAFLYRFQIWRPFTATFYFPVGPGTGFLYLVNLYFLYQYSTRLEAGAFDGRPADYLFMLLFNWICIVITGLAMDMQLLMIPLIMSVLYVWAQLNRDLIVSFWFGTRFKACYLPWVILGFNYIIGGSVINELIGNLVGHLYFFLMFRYPMDLGGRNFLSTPQFLYRWLPSRRGGVSGFGVPPASMRRAADQNGGGGRHNWGQGFRLGDQ | 12.3
6 | EMC3-EGFP (natural protein, mouse, UniProt Q99KI3 1-261, looked up, EMC3, mouse cDNA from the IMAGE consortium, subcloned into pEGFP-N1; FRET donor; vector pEGFP-N1; also called EMC3-GFP; source: HEK293T, transfected, in living cells) MAGPELLLDSNIRLWVVLPIVIITFFVGMIRHYVSILLQSDKKLTQEQVSDSQVLIRSRVLRENGKYIPKQSFLTRKYYFNNPEDGFFKKTKRKVVPPSPMTDPTMLTDMMKGNVTNVLPMILIGGWINMTFSGFVTTKVPFPLTLRFKPMLQQGIELLTLDASWVSSASWYFLNVFGLRSIYSLILGQDNAADQSRMMQEQMTGAAMAMPADTNKAFKTEWEALELTDHQWALDDVEEELMARDLHFEGMFKKELQTSIF | 26.3
